The supplement of paper PMC9170038

tested on: MS2 coat protein; test: apparent KD of MS2 coat protein; higher = weaker reporter binding; settings: Eterna round: R107; input ligand: theophylline 20 uM
In short: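 The designed RNA switches were transcribed on-chip from Illumina sequencing clusters. In 100 mM Tris-HCl pH 7.5, 80 mM KCl and 4 mM MgCl2, without or with constant ligand, they were titrated with SNAP-549-labelled MS2 coat protein from 0.7 or 1.5 nM to 3 µM in twofold steps. Apparent KD is the per-design median of normalised cluster binding-curve fits.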

First: AACGUGAACGUGGUAUACCCGUGUGCCGAAGGAGCGCCCGAAAGGGCAGGUAGGUCGCGGACGACAUGAGGAUCACCCAUGUUUG
Second: ACGUAAAGCAGAAGGAGCGUCUUAAUUCUACAUGAGGAUCACCCAUGUUUACAUUGAAUAUGACAGGUAGGUCGCUGAAGUACGA [JR_SSArginiB_Sub001]
The “apparent KD of MS2 coat protein” value of the first is 3.5-fold higher: 97.2 nM for the first, 27.5 nM for the second.

Compared with “AUAUAUACAUGAGGAUCACCCAUGUUAUUUCGAGGACCGGUACGGCCGCCACUCGAUAGAGUAGAAGUAACAUUUGUUAGAUGUA [JR_SSTryptoA_Sub011]”, “AUGCCUAGUGGAAGGAGCGAGGGUCUUCUCAACAUGAGGAUCACCCAUGUUCUUUUACACCCUCAGGUAGGUCGCCAUUGGGACA [Biraanve]” is 3-fold higher in “apparent KD of MS2 coat protein” value: 28.3 nM for the first, 85.2 nM for the second.

Going from “GGUCUCUGGAGCGAUACCAGCUUGAGUGUACUGGCCAGGUACAUGAGGAUCACCCAUGUAAGCCCUUGGCAGCGCUGCAGAGACC [#1 Exclusion - Theophylline B Attempt #16 (HarryS)]” to “UCUAACAUGAGGAUCACCCAUGUGGGUUAUCGAGGACCGGUACGGCCGCCACUCGACCAGUAUAACUGGCUAGAACGUAUUUGAU [theeternabot_sameState_MS2_Trp_A_34]”, the “apparent KD of MS2 coat protein” value rises from 15 nM to 53.6 nM (3.6-fold).

“UACCUUAACACGGCCGCCACUCUCUAAUAGGAUCAUGGUACCGCACAUGAGGAUCACCCAUGUUUGAGGACCGGGUGUUAUGAAG [theeternabot_sameState_MS2_Trp_B_24]” and “ACGUAAUGCAGAAGGAGCGUCGAUCUCAUACAUGAGGAUCACCCAUGUUACAUGGUUGGACGACAGGUAGGUCGCUGAAGUACGA [#06 Exclusion - Arginine B]” are within 1.5-fold of each other in “apparent KD of MS2 coat protein” value: 25 nM for the first, 35.5 nM for the second.

“GCGGACAUGAGGAUCACCCAUGUAAAUCCUCGAGGACCGGUACGGCCGCCACUCGAACGAGUGGCACGCGAGUGCGCACUCGCGU [aDa]” and “AGAUUCGACACGGCCGCCACUCGUGGAGGAUUACCGAGUGUCGAACAUGAGGAUCACCCAUGUACGAGGACCGGGUGUUGAGUCU [XTryp B #15]” are within 1.5-fold of each other in “apparent KD of MS2 coat protein” value: 38.4 nM for the first, 32.2 nM for the second.

“GCGGUGGUCGGAAGGAGCGACAUGAGGAUCACCCAUGUCUCCCGUUAUGGGAGUUCCUUAGGUCAGGUAGGUCGCCGACUGCCGC [#1 Exclusion - Arginine B Attempt #21 (Inspired by Omei)]” and “AACAUGAGGAUCACCCAUGUAUUGGGUGAUACCAGCCUGAAUAAUGGCCCUUGGCAGCACCACGCUAACUUUAUGUCUGCGAACC [Maus]” are within 1.5-fold of each other in “apparent KD of MS2 coat protein” value: 234 nM for the first, 263 nM for the second.

Going from “UACAUAUGCCGAAGGAGCGCGAGAAGCAAAGCUUCAUUCCUCACAUGAGGAUCACCCAUGUCGCAGGUAGGUCGCGGCAUAUGUU [#15 Exclusion - Arginine B]” to “GUAAAUGUGACGGAUACCAGCGUGUUGUAGAACAUGAGGAUCACCCAUGUAGUGAUCAUGCGCCCUUGGCAGCUGGUAUGUUUGU [7.aB]”, the “apparent KD of MS2 coat protein” value rises from 42 nM to 504 nM (12-fold).

Compared with “CCUCGGGACCGAAGGAGCGAGAUAACAACAUUGGGUCUCAACACAUGAGGAUCACCCAUGUCUCAGGUAGGUCGCGGUACCAUGG [Exclusion Arginine B GF22]”, “UUUUUCGCGGGUGAUACCAGCAAAGUUGUACUGGUCUGGUACAUGAGGAUCACCCAUGUUUGCCCUUGGCAGCGCUCGGGAGAAG [#22 Exclusion-TheophyllineB]” is 7-fold lower in “apparent KD of MS2 coat protein” value: 275 nM for the first, 39.2 nM for the second.

Compared with “CAUCGGGCGGUAAAUGGCGGGUACGGUGAUACCAGUUUUUGAUUUAACCCUUGGCAGCACUAUACAUGAGGAUCACCCAUGUAAU [theeternabot_exclusion_MS2_Theo_A_15]”, “GCCCUUGGCAGCGAUACCAGCCAAAAUUAAAAUAAACCUCUACAUGAGGAUCACCCAUGUGGCCCUUGGCAGCGAUACCAGCAAA [#ReversedDoubbleAptamer 1]” is 2.1-fold higher in “apparent KD of MS2 coat protein” value: 23.2 nM for the first, 49.7 nM for the second.

In the case of “AAACGUUGCUGCGAUACCAGACAUGAGGAUCACCCAUGUACCAAGGUACGAAUAUAACAUGUCCCUUGGCAGCGCAGCAACGAAA [MAT - Exclusion Theophlline B - Mod of Eli - D7]”, the “apparent KD of MS2 coat protein” value is reported as 22.7 nM.

same assay, conditions: Eterna round: R107; input ligand: theophylline 2 mM

First: AUAUAUAUGCGAAGGAGCGGGAAAUAUAUAUAUAUAAUCCUAACAUGAGGAUCACCCAUGUCCCAGGUAGGUCGCGCAUAUAUAU [12.A]
Second: ACAUGAGGAUCACCCAUGUAUGGCGCGGAAGGAGCGUGAUUAAGCACAGGUAGGUCGCUGCGUUGAUCGAGCGUUAGCUCGAUAA [SSArg A #9]
The “apparent KD of MS2 coat protein” value of the first is 3.9-fold higher: 87 nM for the first, 22.4 nM for the second.

Compared with “AACAUGAGGAUCACCCAUGUCGGGCCGGUGCGAGGACCGGUACGGCCGCCACUCGAGACAUGAGGAUCACCCAUGUUGUGCGUGA [Exclusion Tryptophan A GF23]”, “CGGCCCUCACUUGAGGAUCACCCAAGUGAUACCAGCCUGGAAACAGGCCCUUGGCAGCACUAGGUCAUCAAAGAUGACCAAGCCG [TheoAX 28 #OpenEnded #AlternativeMS2]” is 1.5-fold lower in “apparent KD of MS2 coat protein” value: 221 nM for the first, 146 nM for the second.

“ACAUGAGGAUCACCCAUGUGGAGCAGGGUACGAGGACCGGUACGGCCGCCACUCGAGCGUUAUGACGAGUGAAUGGCAACGAUGU [whbob_X-Trypto_A_V1.0]” and “UCUUGAGUUUCGGAUACCAGUGUUGUCGAUACAUGAGGAUCACCCAUGUUAGAGGAUGUACACCCUUGGCAGCCGGGUGUGGCGG [tftmullin]” are within 1.5-fold of each other in “apparent KD of MS2 coat protein” value: 12.5 nM for the first, 12.6 nM for the second.

First: UGUAUGUGAUUUGAUACCAGACCAGCUGGUGUUAGAUGAGGAUCACCCAUCUAGGUUUGGGUCCCUUGGCAGCAAAUCGCAUACU [SS Theo B #24 Ms13]
Second: UGAGAGACCAGAAGGAGCGACAUGAGGAUCACCCAUGUCUCCCGUUAUGGGAGUUCUUUAGGUCAGGUAGGUCGCUGGUCUCUCA [#1 Exclusion - Arginine B Attempt #8 (Inspired by Omei)]
The “apparent KD of MS2 coat protein” value of the first is 13-fold lower: 11.4 nM for the first, 149 nM for the second.

“AAUCGGGAUGGUCAAGGGUAUGCUAUAGAUACCAGUGCAGAGAAACACCCUUGGCAGCUGUGGAACAUGAGGAUCACCCAUGUAG [Theo A Ex t4]” and “UAUAUAGAAGGAAGUCAUAUAGAUGCAGAAGGAGCGUAGGAAACUACAGGUAGGUCGCUGAGGUACAUGAGGAUCACCCAUGUAG [SSArg A #15 Slice of Pi]” are within 1.5-fold of each other in “apparent KD of MS2 coat protein” value: 17.3 nM for the first, 24.9 nM for the second.

Going from “AACGUGAACGUGGUAUACCCGUGUGCCGAAGGAGCGCCCGAAAGGGCAGGUAGGUCGCGGACGACAUGAGGAUCACCCAUGUUUG” to “ACGUAAAGCAGAAGGAGCGUCUUAAUUCUACAUGAGGAUCACCCAUGUUUACAUUGAAUAUGACAGGUAGGUCGCUGAAGUACGA [JR_SSArginiB_Sub001]”, the “apparent KD of MS2 coat protein” value falls from 87.5 nM to 30.8 nM (2.8-fold).

Compared with “AUAUAUACAUGAGGAUCACCCAUGUUAUUUCGAGGACCGGUACGGCCGCCACUCGAUAGAGUAGAAGUAACAUUUGUUAGAUGUA [JR_SSTryptoA_Sub011]”, “AUGCCUAGUGGAAGGAGCGAGGGUCUUCUCAACAUGAGGAUCACCCAUGUUCUUUUACACCCUCAGGUAGGUCGCCAUUGGGACA [Biraanve]” is 2-fold higher in “apparent KD of MS2 coat protein” value: 22 nM for the first, 44.6 nM for the second.

Going from “UCUAACAUGAGGAUCACCCAUGUGGGUUAUCGAGGACCGGUACGGCCGCCACUCGACCAGUAUAACUGGCUAGAACGUAUUUGAU [theeternabot_sameState_MS2_Trp_A_34]” to “UACCUUAACACGGCCGCCACUCUCUAAUAGGAUCAUGGUACCGCACAUGAGGAUCACCCAUGUUUGAGGACCGGGUGUUAUGAAG [theeternabot_sameState_MS2_Trp_B_24]”, the “apparent KD of MS2 coat protein” value falls from 49.4 nM to 20.2 nM (2.4-fold).

“ACGUAAUGCAGAAGGAGCGUCGAUCUCAUACAUGAGGAUCACCCAUGUUACAUGGUUGGACGACAGGUAGGUCGCUGAAGUACGA [#06 Exclusion - Arginine B]” and “GCGGACAUGAGGAUCACCCAUGUAAAUCCUCGAGGACCGGUACGGCCGCCACUCGAACGAGUGGCACGCGAGUGCGCACUCGCGU [aDa]” are within 1.5-fold of each other in “apparent KD of MS2 coat protein” value: 27.4 nM for the first, 29.7 nM for the second.

With “AGAUUCGACACGGCCGCCACUCGUGGAGGAUUACCGAGUGUCGAACAUGAGGAUCACCCAUGUACGAGGACCGGGUGUUGAGUCU [XTryp B #15]” the “apparent KD of MS2 coat protein” value was 28.5 nM.
